From PMC8141531 come the findings set out here.

Assay in all cases: SPR
Experiment [1] concerns the target human IL-2Rα-Fc chimera (human) (UniProt P01589).
Experiment [2] addresses heterodimeric IL-2Rαβ (human IL-2Rα-Fc chimera and human IL-2Rβ-Fc chimera captured together) (human) (UniProt P01589).
Experiment [3] deals with human IL-2Rβ-Fc chimera (human) (UniProt P14784).
UniProt P14784, sequence (P14784 27-240, change not shown): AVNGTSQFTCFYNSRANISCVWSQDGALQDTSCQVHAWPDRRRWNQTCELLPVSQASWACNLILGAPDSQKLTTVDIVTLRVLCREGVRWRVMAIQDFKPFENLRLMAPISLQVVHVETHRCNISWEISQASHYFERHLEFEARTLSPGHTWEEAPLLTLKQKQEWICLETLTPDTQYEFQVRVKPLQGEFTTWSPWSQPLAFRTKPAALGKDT

For orientation: Kd means the free concentration of one partner at which half of the binding sites on the other are occupied at equilibrium, for simple one-to-one binding. Lower therefore signals a tighter complex. Turning to “NKTR-358, a PEGylated form of rhIL-2 (aldesleukin sequence) (from UniProt P60568 21-153) (ligand)”, the Kd in experiment [1] came out at 7.3 µM; in experiment [2], 1.7 µM; in experiment [3], 88 µM.
